Experimental data published in patent publication US20230151091A1 (NEW YORK UNIVERSITY, published 2023).

Key:
[1] = biological target: T1, mouse MuSK, endogenous (C2C12 myotubes; neuromuscular synapses of mice) (mouse, UniProt Q61006 22-868); experiment: cell-based or functional assay
T1 sequence (looked up): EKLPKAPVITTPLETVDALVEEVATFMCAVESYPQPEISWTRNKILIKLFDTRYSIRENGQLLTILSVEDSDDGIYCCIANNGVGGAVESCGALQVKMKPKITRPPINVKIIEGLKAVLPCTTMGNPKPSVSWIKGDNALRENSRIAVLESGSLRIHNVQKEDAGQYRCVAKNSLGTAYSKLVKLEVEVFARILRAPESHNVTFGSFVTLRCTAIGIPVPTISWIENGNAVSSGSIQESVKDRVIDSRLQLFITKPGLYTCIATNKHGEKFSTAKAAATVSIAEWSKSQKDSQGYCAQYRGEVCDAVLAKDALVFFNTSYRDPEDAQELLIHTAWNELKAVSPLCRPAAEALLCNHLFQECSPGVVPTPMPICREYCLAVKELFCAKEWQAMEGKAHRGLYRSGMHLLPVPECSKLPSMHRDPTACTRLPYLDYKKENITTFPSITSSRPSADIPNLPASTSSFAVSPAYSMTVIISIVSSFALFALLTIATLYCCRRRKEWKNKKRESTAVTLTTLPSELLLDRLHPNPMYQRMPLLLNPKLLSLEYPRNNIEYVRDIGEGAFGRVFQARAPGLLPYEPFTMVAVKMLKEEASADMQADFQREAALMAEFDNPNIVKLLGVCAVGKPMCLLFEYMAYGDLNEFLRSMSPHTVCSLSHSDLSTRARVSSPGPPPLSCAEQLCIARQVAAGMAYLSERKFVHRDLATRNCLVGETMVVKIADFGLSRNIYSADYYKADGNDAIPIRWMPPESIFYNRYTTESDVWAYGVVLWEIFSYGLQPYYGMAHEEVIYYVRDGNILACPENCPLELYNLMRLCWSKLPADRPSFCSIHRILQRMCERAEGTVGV

cynomolgus monkey MuSK [2] = biological target: T2, cynomolgus monkey MuSK (cynomolgus monkey, UniProt A0A2K5USF6 24-487); experiment: Biacore, MuSK on chip, association pH 7.4, dissociation pH 5.5
T2 sequence (A0A2K5USF6 entry or part of it): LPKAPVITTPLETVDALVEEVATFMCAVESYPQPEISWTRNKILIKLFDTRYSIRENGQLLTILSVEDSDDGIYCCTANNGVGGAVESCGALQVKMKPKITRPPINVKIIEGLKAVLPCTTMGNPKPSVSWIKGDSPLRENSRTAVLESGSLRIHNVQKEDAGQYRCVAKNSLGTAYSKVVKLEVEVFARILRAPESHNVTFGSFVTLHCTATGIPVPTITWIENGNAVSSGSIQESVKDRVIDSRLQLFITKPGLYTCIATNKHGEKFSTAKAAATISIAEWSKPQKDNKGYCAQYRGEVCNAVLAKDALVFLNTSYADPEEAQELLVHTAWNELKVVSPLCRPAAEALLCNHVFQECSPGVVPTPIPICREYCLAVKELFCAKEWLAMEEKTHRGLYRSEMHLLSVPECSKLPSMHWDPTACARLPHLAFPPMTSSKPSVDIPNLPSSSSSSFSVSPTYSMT
Experimental: (§1) For affinity determination, a CMS chip was coated with cynomolgus monkey, rat and mouse MuSK (200RU) and 66.7 nM of antibody was applied and kinetic parameters calculated (Table 8). The following conclusions could be drawn: (1) 3B2g1m3 and 3B2g2m3 (m3 variants) show significant drop in affinity for MuSK for all species tested; (2) 3B2g1m2 and 3B2g2m2 (m2 variants) show some drop in affinity for MuSK; (3) 3B2g1m1, 3B2g2m1, 3B2g1m4, 3B2g2m4 (ml and m4 variants) show no drop in affinity for MuSK for all species tested; and (4) for all clones there is no difference between g1 and g2 variants (VL methionine versus serine in CDR3).
(§2) In order to study pH dependent binding of our antibodies to MuSK, the same Biacore was used as above, but now dissociation was done at pH 5.5 instead of pH 7.4. […] The following conclusions could be drawn for the different variants: (1) 3B2g1m3 and 3B2g2m3 (m3 variants) show significant drop in affinity for MuSK for all species tested; (2) 3B2g1m2 and 3B2g2m2 (m2 variants) show some drop in affinity for MuSK; (3) 3B2g1m1, 3B2g2m1, 3B2g1m4, 3B2g2m4 (m1 and m4 variants) show no drop in affinity for MuSK for all species tested; and (4) for all clones there is no difference between g1 and g2 variants (VL methionine versus serine in CDR3).

mouse MuSK [3] = biological target: T3, mouse MuSK (mouse, UniProt Q61006 22-494, limits assumed); experiment: as above
T3 construct: Coated on ELISA plates or on the Biacore chip; also called full length mouse MuSK; mouse MuSK (in house produced in HEK293 cells)
T3 sequence (looked up): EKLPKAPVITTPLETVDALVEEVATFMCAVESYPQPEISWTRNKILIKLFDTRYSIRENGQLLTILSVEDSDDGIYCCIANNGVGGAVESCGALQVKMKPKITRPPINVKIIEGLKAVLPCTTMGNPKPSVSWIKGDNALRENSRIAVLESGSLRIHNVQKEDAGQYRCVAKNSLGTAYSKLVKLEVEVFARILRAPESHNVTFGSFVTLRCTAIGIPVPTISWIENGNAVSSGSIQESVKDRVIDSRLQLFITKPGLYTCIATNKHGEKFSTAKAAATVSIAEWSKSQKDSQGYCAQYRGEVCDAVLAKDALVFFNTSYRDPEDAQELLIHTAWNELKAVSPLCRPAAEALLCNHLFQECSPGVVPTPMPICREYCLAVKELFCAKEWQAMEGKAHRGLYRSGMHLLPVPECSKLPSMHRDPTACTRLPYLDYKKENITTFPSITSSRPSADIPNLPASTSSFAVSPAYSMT
Experimental: as §1, §2

rat MuSK [4] = biological target: T4, rat MuSK (rat, UniProt Q62838 22-494, limits assumed); experiment: as above
T4 construct: Coated on Biacore chip (200RU) or ELISA plate
T4 sequence (looked up): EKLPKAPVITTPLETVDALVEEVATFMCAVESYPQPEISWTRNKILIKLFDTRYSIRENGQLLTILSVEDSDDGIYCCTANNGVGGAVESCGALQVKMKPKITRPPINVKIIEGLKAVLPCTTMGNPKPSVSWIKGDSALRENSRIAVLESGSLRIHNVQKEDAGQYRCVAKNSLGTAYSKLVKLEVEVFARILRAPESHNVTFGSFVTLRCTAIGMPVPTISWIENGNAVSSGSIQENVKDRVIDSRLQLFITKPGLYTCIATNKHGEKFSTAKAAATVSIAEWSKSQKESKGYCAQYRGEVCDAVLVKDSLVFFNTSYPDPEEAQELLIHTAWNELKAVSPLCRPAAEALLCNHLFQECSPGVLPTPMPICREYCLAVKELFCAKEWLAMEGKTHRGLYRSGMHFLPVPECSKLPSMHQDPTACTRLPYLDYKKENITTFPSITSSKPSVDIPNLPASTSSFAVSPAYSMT
Experimental: as §1, §2

cynomolgus monkey MuSK [5] = biological target: T2, cynomolgus monkey MuSK; experiment: Biacore, MuSK on chip (200RU), 66.7 nM mAb, dissociation pH 7.4
Experimental: as §1

mouse MuSK [6] = biological target: T3, mouse MuSK; experiment: as above
Experimental: as §1

rat MuSK [7] = biological target: T4, rat MuSK; experiment: as above
Experimental: as §1

mouse MuSK [8] = biological target: T3, mouse MuSK; experiment: Biacore, MuSK on chip, association pH 7.4, dissociation pH 5.5; association at pH 7.4, dissociation at pH 5.5
Experimental: as §1, §2

[9] = biological target: T5, mFz: Fz domain and C-terminal flanking sequence of mouse MuSK (D307 to T494) with C-terminal Avi- and … (mouse, UniProt Q61006 307-494, limits assumed, biotinylated in vitro using the BirA enzyme); experiment: bead-binding assay, IgG format: biotinylated antigen on streptavidin beads, flow cytometry, 1:1 fit; average ± s.d., n=3
T5 construct: also called mouse Fz; not shown: Avi- and His6-tags
T5 sequence (looked up): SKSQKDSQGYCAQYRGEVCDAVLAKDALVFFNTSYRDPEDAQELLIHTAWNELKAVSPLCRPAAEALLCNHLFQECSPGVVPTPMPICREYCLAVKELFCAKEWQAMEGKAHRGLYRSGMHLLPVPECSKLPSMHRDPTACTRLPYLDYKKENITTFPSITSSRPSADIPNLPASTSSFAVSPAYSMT

[10] = biological target: T6, hECD: full-length extracellular region of human MuSK (E22 to T495) with C-terminal Avi- and His6-tags (human, UniProt O15146 22-495, biotinylated in vitro using the BirA enzyme); experiment: as above
T6 construct: also called human ECD; not shown: Avi- and His6-tags
T6 sequence: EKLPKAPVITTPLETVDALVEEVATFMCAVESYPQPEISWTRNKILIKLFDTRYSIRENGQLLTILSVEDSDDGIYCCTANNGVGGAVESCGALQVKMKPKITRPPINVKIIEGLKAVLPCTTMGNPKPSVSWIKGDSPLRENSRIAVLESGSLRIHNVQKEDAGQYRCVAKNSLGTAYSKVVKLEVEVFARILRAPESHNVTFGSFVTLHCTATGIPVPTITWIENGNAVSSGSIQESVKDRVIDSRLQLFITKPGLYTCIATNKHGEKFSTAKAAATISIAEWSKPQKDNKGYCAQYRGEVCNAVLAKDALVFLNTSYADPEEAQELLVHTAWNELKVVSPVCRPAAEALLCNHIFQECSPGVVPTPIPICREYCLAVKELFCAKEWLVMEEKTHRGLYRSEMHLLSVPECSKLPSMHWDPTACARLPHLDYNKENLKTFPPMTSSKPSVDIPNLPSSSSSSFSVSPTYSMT

[11] = biological target: T7, mECD: full-length extracellular region of mouse MuSK (E22 to T494) with C-terminal Avi- and His6-tags (mouse, UniProt Q61006 22-494, biotinylated in vitro using the BirA enzyme); experiment: as above
T7 construct: range 22-494; also called mouse ECD; not shown: Avi- and His6-tags
T7 sequence (looked up): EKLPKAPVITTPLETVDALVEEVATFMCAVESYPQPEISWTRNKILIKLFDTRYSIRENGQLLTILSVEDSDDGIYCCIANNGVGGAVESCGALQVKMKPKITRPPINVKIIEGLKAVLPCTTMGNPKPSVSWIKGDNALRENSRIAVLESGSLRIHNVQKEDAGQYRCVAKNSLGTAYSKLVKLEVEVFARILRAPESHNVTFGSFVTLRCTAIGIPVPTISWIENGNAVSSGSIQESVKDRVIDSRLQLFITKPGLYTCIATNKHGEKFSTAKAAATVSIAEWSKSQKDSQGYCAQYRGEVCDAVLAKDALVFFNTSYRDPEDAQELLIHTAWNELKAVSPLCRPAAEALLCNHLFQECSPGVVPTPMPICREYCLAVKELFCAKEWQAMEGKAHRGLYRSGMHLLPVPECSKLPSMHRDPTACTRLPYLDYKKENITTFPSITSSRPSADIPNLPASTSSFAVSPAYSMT

[12] = biological target: T8, hFz: Fz domain and C-terminal flanking sequence of human MuSK (K314-T495) with C-terminal Avi- and His6-tags (human, UniProt O15146 314-495, biotinylated in vitro using the BirA enzyme); experiment: as above
T8 construct: also called human Fz; not shown: Avi- and His6-tags
T8 sequence: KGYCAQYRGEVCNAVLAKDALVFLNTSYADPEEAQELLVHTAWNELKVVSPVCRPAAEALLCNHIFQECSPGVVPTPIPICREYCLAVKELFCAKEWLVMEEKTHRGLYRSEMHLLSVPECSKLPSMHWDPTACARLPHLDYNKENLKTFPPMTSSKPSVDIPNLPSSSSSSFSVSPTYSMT

[13] = biological target: T1, mouse MuSK, endogenous (C2C12 myotubes; …); experiment: in vivo: wildtype mice injected i.p., diaphragm stained two days later with anti-human F(ab')2 Alexa 647 and Alexa 488-alpha-BGT; ratio of signal intensities at the synapse [continued]

B1: 3B2g1m2 (antibody, human IgG1, V domains shown)
VH: EVQLLESGGGLVQPGGSLRLSCAASGFTFSDYGMSWVRQAPGKGLEWVSAIPGSGGSTYYKESVKGRFTISRDNSKNTLYLQMNSLRAEDTAVYYCAKRSGRIAFGALDAWGQGTLVTVSS
VL: QTVVTQEPSFSVSPGGTVTLTCGLSSGSVTSSNYPDWYQQTPGQAPRTLIYSTDSRHSGVPDRFSGSILGNKAALTITGAQADDESDYYCGLYMYSGSKNYVFGGGTKLTVL
notes: human IgG1-LALA backbone; produced in HEK293 cells
[1]
  MuSK phosphorylation in C2C12 myotubes: ~80 % of 1 nM agrin
Cynomolgus monkey MuSK [2]
  R0: 148 RU
  koff: 0.0034 s⁻¹
  kon: 800000 M⁻¹ s⁻¹
Mouse MuSK [3]
  R0: 152 RU
  kon: 70000 M⁻¹ s⁻¹
Rat MuSK [4]
  R0: 136 RU
  koff: 0.0865 s⁻¹
  kon: 40000 M⁻¹ s⁻¹
Cynomolgus monkey MuSK [5]
  R0: 133 RU
  koff: 0.00183 s⁻¹
  kon: 850000 M⁻¹ s⁻¹
Mouse MuSK [6]
  R0: 155 RU
  koff: 0.00253 s⁻¹
  kon: 1.61e+06 M⁻¹ s⁻¹
Rat MuSK [7]
  R0: 125 RU
  koff: 0.00314 s⁻¹
  kon: 1.45e+06 M⁻¹ s⁻¹
Mouse MuSK [8]
  koff: 0.00915 s⁻¹

B2: mIgG2a-X17 (antibody, V domains shown)
VH: EVQLVESGGGLVQPGGSLRLSCAASGFTISYSSIHWVRQAPGKGLEWVASIYSSSGSTYYADSVKGRFTISADTSKNTAYLQMNSLRAEDTAVYYCARGDHGYYVFGYLGMDYWGQGTLVTVSS
VL: DIQMTQSPSSLSASVGDRVTITCRASQSVSSAVAWYQQKPGKAPKLLIYSASSLYSGVPSRFSGSRSGTDFTLTISSLQPEDFATYYCQQSYKPGALITFGQGTKVEIK
notes: chimeric antibody of a human Fab (human CH1) and mouse IgG2a Fc with the LALAPG mutations; also called X17-mIgG2a-LALAPG; antibody X17
[9]
  Kd: 0.74 nM
[10]
  Kd: 0.97 nM
[11]
  Kd: 1.1 nM
[12]
  Kd: 0.61 nM
[13]
  EC50 (read off the curve): ~0.5 mg/kg
